Reference: paper PMC8651051

Experiments:
Details in all cases: N = 1 experiment
[1] = target: CV664_993_GS
[2] = target: CV503_993_EL
[3] = target: CV503_664_GS
[4] = target: CV993_521_GS

| Substance | percent of parent [1] | percent of parent [2] | percent of parent [3] | percent of parent [4] |
| --- | --- | --- | --- | --- |
| full-length SARS-CoV-2 spike D614G, expressed on the cell surface (from UniProt P0DTC2) Alpha (B.1.1.7) | 257 % of D614G | 214 % of D614G | 236 % of D614G | 222 % of D614G |
| full-length SARS-CoV-2 spike D614G, expressed on the cell surface (from UniProt P0DTC2) Beta (B.1.351) |  | 170 % of D614G | 202 % of D614G |  |
